Test results taken from publication PMC3961188, “The bHLH Factors Extramacrochaetae and Daughterless Control Cell Cycle in Drosophila Imaginal Discs through the Transcriptional Regulation of the cdc25 Phosphatase string”.

Columns and labels:
[1] = biological target: T1, Daughterless (Da), GST fusion (Drosophila melanogaster, UniProt P11420 1-710); assay: EMSA; direct Cy5 probe; not stated in the material (EMSA buffer, salt, pH and temperature not given); settings: protein: recombinant; tags: N-terminal GST (pDEST 15); chain copies: 2; blunt
T1 sequence: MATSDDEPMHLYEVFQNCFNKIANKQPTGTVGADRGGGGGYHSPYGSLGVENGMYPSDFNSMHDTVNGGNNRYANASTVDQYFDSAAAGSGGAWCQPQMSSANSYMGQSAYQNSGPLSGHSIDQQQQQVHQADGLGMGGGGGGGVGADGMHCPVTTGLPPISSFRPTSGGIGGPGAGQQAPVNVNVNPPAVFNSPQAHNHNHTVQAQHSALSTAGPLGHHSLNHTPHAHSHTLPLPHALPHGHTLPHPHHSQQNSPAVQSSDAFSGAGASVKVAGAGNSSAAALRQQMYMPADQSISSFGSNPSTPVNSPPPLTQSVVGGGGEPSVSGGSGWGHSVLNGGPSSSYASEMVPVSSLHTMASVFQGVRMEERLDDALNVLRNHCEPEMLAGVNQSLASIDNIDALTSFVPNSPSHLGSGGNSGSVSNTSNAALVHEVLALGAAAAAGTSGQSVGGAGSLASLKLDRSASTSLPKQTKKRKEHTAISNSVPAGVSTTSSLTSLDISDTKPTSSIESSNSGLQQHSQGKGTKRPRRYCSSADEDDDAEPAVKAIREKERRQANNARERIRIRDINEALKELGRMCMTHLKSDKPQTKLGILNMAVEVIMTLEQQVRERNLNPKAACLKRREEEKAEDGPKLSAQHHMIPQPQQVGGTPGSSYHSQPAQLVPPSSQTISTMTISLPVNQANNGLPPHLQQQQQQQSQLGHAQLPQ

[2] = biological target: T1, Daughterless (Da), GST fusion; assay: EMSA; Cy5 and Cy3 versions of the probe; not stated in the material (EMSA buffer, salt, pH and temperature not given); settings: protein: recombinant; tags: N-terminal GST (pDEST 15); chain copies: 2; blunt

B1: stg prom* (cy5) (dsDNA)
DNA 1: TAGCTCATACTAGTATCGTGA
DNA 2: TCACGATACTAGTATGAGCTA
- binding result [1]: no binding

B2: stg prom (cy5 / cy3) (dsDNA)
DNA 1: TAGCTCATCAGCTGATCGTGA
DNA 2: TCACGATCAGCTGATGAGCTA
- binding result [2]: binds
